Test results as given in patent US20060148038A1 (INST NAT L DE LA SANTE ET DE LA RECH MEDICALE, published 2006).
Where a chain is given by its changes, count along the chain named.

B1: activated form of the GDX-IVG derivative (enzyme, human)
light: EDQVDPRLIDGKDGDQCETSPCQNQGKCKDGLGEYTCTCLEGFEGKNCELFTRKLCSLDNGDCDQFCHEEQNSVVCSCARGYTLADNGKACIPTGPYPCGKQTLER
heavy: IVGGQECKDGECPWQALLINEENEGFCGGTILSEFYILTAAHCLYQAKRFKVRVGDRNTEQEEGGEAVHEVEVVIKHNRFTKETYDFDIAVLRLKTPITFRMNVAPACLPERDWAESTLMTQKTGIVSGFGRTHEKGRQSTRLKMLEVPYVDRNSCKLSSSFIITQNMFCAGYDTKQEDACQGDSGGPHVTRFKDTYFVTGIVSWGEGCARKGKYGIYTKVTAFLKWIDRSMKTRGLPKAKSHAPEVITSSPLKEQKLISEEDLN
notes: domain: two EGF domains;domain: catalytic domain
B2: activated form of the GD-FX derivative (enzyme, human)
light: B1 light
heavy: B1 heavy
notes: as for B1
B3: activated form of the GDX-SVG derivative (enzyme, human)
light: B1 light
heavy: B1 heavy with I1S
notes: as for B1
B4: activated form of the GDX-AVG derivative (enzyme, human)
light: B1 light
heavy: B1 heavy with I1A
notes: as for B1
B5: activated form of the GDX-IFR derivative (enzyme, human)
light: B1 light
heavy: B1 heavy with V2F, G3R
notes: as for B1
B6: activated form of the GDX-IFG derivative (enzyme, human)
light: B1 light
heavy: B1 heavy with V2F
notes: domain: two EGF domains;domain: catalytic domain; Position 236 counted from the printed Ile235 = P1′
B7: activated form of the GDX-SFR derivative (enzyme, human)
light: B1 light
heavy: B1 heavy with I1S, V2F, G3R
notes: as for B1

How the values were obtained:
D-Phe-Phe-Arg-CH3Cl [1] = test: inactivation kinetics: residual amidolytic activity on S2765 after incubation with D-FFR-CK, pseudo-first order, 25° C.
GDX-IVG (zymogen) = GDX-IVG (zymogen) (UniProt P00742)
GDX-SVG (zymogen) = GDX-SVG (zymogen) (UniProt P00742)
GDX-SFR (zymogen) = GDX-SFR (zymogen) (UniProt P00742)
GDX-IFG (zymogen) = GDX-IFG (zymogen) (UniProt P00742)
GDX-AVG (zymogen) = GDX-AVG (zymogen) (UniProt P00742)
FX-recombinant (zymogen) = FX-recombinant (zymogen) (UniProt P00742)
[2] = target: prothrombin (immunopurified)
[3] = target: T1, antithrombin (purified from human plasma) (human, UniProt P01008 33-464); test: inhibition kinetics, continuous S2765 hydrolysis, second-order (slow tight-binding) conditions, 2 units/ml heparin, 25° C.
T1 construct: mature
T1 sequence (P01008 33-464): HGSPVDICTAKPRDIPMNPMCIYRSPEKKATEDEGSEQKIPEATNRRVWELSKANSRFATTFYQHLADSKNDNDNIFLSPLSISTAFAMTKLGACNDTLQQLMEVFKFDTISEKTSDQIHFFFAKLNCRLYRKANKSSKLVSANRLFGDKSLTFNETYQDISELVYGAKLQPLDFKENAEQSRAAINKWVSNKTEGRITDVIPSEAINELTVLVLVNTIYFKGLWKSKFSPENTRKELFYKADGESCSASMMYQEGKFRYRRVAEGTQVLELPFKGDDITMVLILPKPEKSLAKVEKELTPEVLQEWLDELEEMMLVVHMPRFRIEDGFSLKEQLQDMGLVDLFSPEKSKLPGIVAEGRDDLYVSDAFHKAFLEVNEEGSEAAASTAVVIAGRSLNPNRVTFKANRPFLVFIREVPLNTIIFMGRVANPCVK
Protocol: The kinetics are studied at 25° C., in kinetics buffer containing 1 mg/ml of protease-free bovine albumin and 2 units per ml of heparin; they are followed continuously by virtue of the presence in the reaction medium of 400 μM S2765. The reaction is carried out in a microcuvette in a volume of 600 μl, following the kinetics using a lambda 14 spectrophotometer. The reaction is triggered by adding the minimum amount of activated form of the factor X derivative which is compatible with a reliable signal (1 to 2.5 nM depending on the derivative, such that, in the absence of inhibitor, approximately 10% of the chromogenic substrate is hydrolysed in 60 minutes). For each activated form of factor X derivative, the reaction is carried out in the presence of two concentrations of antithrombin, equal to 2 and 3 times the concentration of the target. By plotting the absorbance at 405 nm as a function of time, a curve is obtained which makes it possible, by non-linear regression using equation 6, to estimate the second-order rate constant for the reaction. The kₒₙ of the antithrombin for the activated form of the factor X derivative is given by equation 5 which takes into consideration the competition introduced by the substrate during the kinetics.

[4] = target: T1, antithrombin (purified from human …); test: inhibition kinetics, continuous S2765 hydrolysis, pseudo-first order, no heparin, 25° C.
From the text: The method by continuous recording of the absorbance at 405 nm under pseudo-first order conditions is used to estimate (in the absence of heparin) the kₒₙ of the antithrombin for the activated form of the factor X derivative lacking Gla domain, and those of the activated forms of the GDX-IVG and GDX-IFG derivatives.

[5] = target: T1, antithrombin (purified from human …); test: SDS-PAGE of covalent complexes, 1 µM derivative, 2 µM antithrombin, 2 units/ml heparin
Protocol: (§1) The incubation is sustained for one hour at 25° C., and the reaction mixture is analysed by polyacrylamide gel electrophoresis (10%, crosslinking 29/1), after denaturation and reduction of the sample. After staining with Coomassie blue, the presence of covalent complexes between the (inactivated) form of the factor X derivative and the antithrombin results in a decrease in the intensity of the band corresponding to antithrombin (60 kDa), a decrease in the intensity of the band corresponding to the activated form of the factor X derivative (31 kDa), and the appearance of a new band of higher molecular weight (approximately 100 kDa) corresponding to the covalent complex.

[6] = target: T1, antithrombin (purified from human …); test: inhibition kinetics, batchwise residual amidolytic activity on S2765, pseudo-first order, 2 units/ml heparin, 25° C.
Protocol: The method by batchwise sampling of aliquots is used to estimate the kₒₙ of the antithrombin for the activated form of the GDX-AVG derivative (in the presence and the absence of heparin).
The reaction is carried out in kinetics buffer containing 1 mg/ml of protease-free bovine albumin (SIGMA, St Quentin-Fallavier, France) and, when appropriate, 2 units per ml of heparin (KORDIA). In a reaction volume of 10 μl, a sufficient amount of the activated form of the GDX-AVG derivative (0.5 μM in the presence of heparin, 1 μM in its absence) is incubated in the presence of a large excess of antithrombin (5 μM in the presence of heparin, 10 μM in its absence), for a varying amount of time at 25° C. The same experiment is repeated twelve times, varying the incubation time from one experiment to another (from 10 seconds for the first to 5 hours for the last, such that the incubation time for a given experiment is equal to double that of the preceding one). At the end of each incubation, 190 μl of S2765 (200 μM in kinetics buffer) are added, and the residual amidolytic activity is measured by recording the variation in the absorbance at 405 nm as a function of time (i.e. the initial rate of hydrolysis of the S2765) using an MR5000 microplate reader. […]

D-Phe-Phe-Arg-CH3Cl [7] = test: inactivation kinetics with D-FFR-CK, residual amidolytic activity on S2765
[8] = target: T1, antithrombin (purified from human …); test: inhibition kinetics with antithrombin, no heparin
[9] = target: T1, antithrombin (purified from human …); test: SDS-PAGE with Coomassie blue after incubation with antithrombin and heparin
Protocol: as §1

Molecule | kon (D-Phe-Phe-Arg-CH3Cl [1]) [M⁻¹ s⁻¹] | coefficient of acceleration of pNA release by the thrombin generated by the prothrombinase complex (+factor Va) (factor Va (KORDIA)) | coefficient of acceleration of pNA release by the thrombin generated by the activated factor X derivative alone (-factor Va) [2] | kon [3] [M⁻¹ s⁻¹] | kon [4] [M⁻¹ s⁻¹] | other results
activated form of the factor X from plasma (from UniProt P00742 41-179; P00742 235-488) (enzyme) | 2300 | – | – | – | – | –
thrombin | – | – | – | – | – | kcat/Km (M^-1 s^-1) for the activation of the factor X derivative by thrombin (GDX-IVG (zymogen)): < 1 M⁻¹ s⁻¹; kcat/Km (M^-1 s^-1) for the activation of the factor X derivative by thrombin (GDX-SVG (zymogen)): < 1 M⁻¹ s⁻¹; kcat/Km (M^-1 s^-1) for the activation of the factor X derivative by thrombin (GDX-SFR (zymogen)): 4 10^3 (±27%); kcat/Km (M^-1 s^-1) for the activation of the factor X derivative by thrombin (GDX-IFG (zymogen)): < 1 M⁻¹ s⁻¹; kcat/Km (M^-1 s^-1) for the activation of the factor X derivative by thrombin (GDX-AVG (zymogen)): 1 10^2 (±9%); cleavage of the factor X derivative by thrombin (FX-recombinant (zymogen)): the FX-recombinant is not detectably cleavable by thrombin (ND)
B1 | 2250 | 1.1 10^-4 (±1%) | 2.8 10^-5 (±2%) | 2e+07 | 5800 | fold increase of the rate of activation of the prothrombin on addition of factor Va (factor Va (KORDIA)): the addition of factor Va increases the rate of activation of the prothrombin 50-fold and 10-fold respectively
B2 | 2230 | 4.2 10^-4 (±2%) | 8.8 10^-6 (±2%) | 1.3e+07 | 12000 | fold increase of the rate of activation of the prothrombin on addition of factor Va (factor Va (KORDIA)): the addition of factor Va increases the rate of activation of the prothrombin 50-fold and 10-fold respectively
B3 | – | – | – | – | – | binding result [5]: binds
B4 | – | 3.1 10^-5 (±1%) | 9.6 10^-7 (±2%) | – | – | rate of activation of the prothrombin with factor Va, against the non-mutated homologue (GDX-IVG) (factor Va (KORDIA)): this is now only 13 times less than that obtained for the activated form of its non-mutated homologue (GDX-IVG); kon [6]: 300 M⁻¹ s⁻¹; fold decrease of kon against the activated form of the factor X from plasma (D-Phe-Phe-Arg-CH3Cl [7]): 1000 times less; fold decrease of kon against its non-mutated homologue (no heparin) [8]: > 1000 times less
B5 | – | 3.3 10^-6 (±1%) | – | – | – | binding result [5]: binds
B6 | – | 4.9 10^-6 (±1%) | 1.0 10^-7 (±2%) | 760000 | 180 | fold decrease of kon against the activated form of the factor X from plasma (D-Phe-Phe-Arg-CH3Cl [7]): 20 times lower; fold decrease of kon against the non-mutated activated forms (no heparin) [8]: 66 times smaller
B7 | – | – | – | – | – | binding result [9]: no binding
